Laboratory results reported in the supplement of paper PMC10126150.
± gives the standard deviation of the averaged measurements.

Test system: ATP
Test: switch fluorescence ratio, 500 uM ATP over buffer (Cy3 cluster intensity, sum of 5 cycles each) (fold (ratio)); higher = stronger signal-on switching upon ATP binding; sequences stand for … in TCGTCGGCAGCGTCAGATGTGTATAAGAGACAGTTTTTTTTTTTTTTTTTTTTTTTTT…TC
Settings: aptamer strand: ATP DNA aptamer (quencher-CACCTGGGGGAGTATTGCGGAGGAAGG + anchor), 100 nM annealed; ATP concentration: 500 uM
How it was run: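 Switching-strand clusters labelled with Cy3 on a modified Illumina MiSeq flow-cell were annealed to 100 nM quencher-labelled ATP aptamer, imaged in selection buffer, and re-imaged after 15 min with 500 uM ATP at 22 °C. This was done over five cycles with NaOH stripping and re-annealing in between. The fluorescence ratio is summed target-cycle over summed buffer-cycle Cy3 intensity per cluster, averaged per switch-domain sequence, excluding clusters outside 100-1000 RFU.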
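Also: ATP exposure 15 min at 22 °C before imaging.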

Sequence	switch fluorescence ratio
TAGGAGGCGG	0.958 ± 0.039
AATCTTCTGG	0.98 ± 0.025
TCTAAAGATT	1.011 ± 0.0027
TGGGGCCGGG	1.01 ± 0.016
AACCTTTTTA	1.01 ± 0.045
AAAAGGGGAT	0.997 ± 0.036
GTCTGGGCGG	0.9919 ± 0.0031
TAACGTAACA	1.26 ± 0.068
TACATGTAGC	0.986 ± 0.02
ACTTTGGAGA	1.029 ± 0.0054
TTGTTTTGTT	1.04 ± 0.1
CACGAGATAA	1.11 ± 0.079
TTTCATGGCG	0.97893 ± 0.0002
ATTTGGTGTT	1.01 ± 0.032
TTGTTAACTT	0.985 ± 0.017
GTGCTGCCGG	1.01 ± 0.049
TTGGCCGCAT	1.24 ± 0.09
CAGTGAGCTC	0.981 ± 0.022
ACGAGGGCCA	1.004 ± 0.0086
TGTTTTTGGG	0.989 ± 0.029
GGCAGGTGTT	1.73 ± 0.85
AGGGGTATTC	1.01 ± 0.049
CCAGGGGGCA	1.13 ± 0.14

Sequence	switch fluorescence ratio
ACTATTAAT	1.024 ± 0.0063
AGTTGCACGT	0.954 ± 0.041
GCAGTTGTTC	0.981 ± 0.037
TCCGGCGGAC	1.149 ± 0.0078
TTGACAATGG	0.99 ± 0.012
ATCATTCAAA	1.008 ± 0.0073
TATATAATTT	0.987 ± 0.012
TTATTATTGG	0.986 ± 0.013
TCACTTATAA	1.02 ± 0.018
AAGGGCCGGG	0.967 ± 0.029
GCGGGCGATG	0.9902 ± 0.00014
CAGTTTCAGG	0.966 ± 0.043
TTGTCCCTTT	0.9848 ± 0.0074
AGGATCTTGT	0.9943 ± 0.0016
TCATAGTTCA	1.03 ± 0.012
GCCATGGTTG	1.04 ± 0.067
TTCGGGGTTC	1.0029 ± 0.00079
TCTGGAGGGG	1.022 ± 0.0073
TGTTTTTTAA	0.99 ± 0.044
CCCCTGGCAT	1.42 ± 0.022
TTACTAAGCT	1.03 ± 0.069
TCGTCGTTTG	0.991 ± 0.01
TCGAGTTGTT	0.988 ± 0.021

Sequence	switch fluorescence ratio
CGAGTTAGGG	0.9906 ± 0.0021
TGCGGGGTGC	1.02 ± 0.0028
AGGCCGTGGC	0.968 ± 0.035
AAAGGATTTA	1.02 ± 0.061
CGTTATCGTG	0.9826 ± 0.0061
TGCGAGGTTG	1.01 ± 0.041
AGTTTACGAA	1.01 ± 0.0069
GGAGATATCT	1.11 ± 0.0069
TTCAAGGTA	1.01 ± 0.015
ATGGGCTGGA	1.04 ± 0.015
CCGTAAGAAT	1.37 ± 0.055
ATGGAGCAGT	1.6 ± 0.019
GGATTAGGTA	1 ± 0.021
AATTTCCGAG	1.17 ± 0.037
TCTCATAGGT	1.04 ± 0.038
AGCATTATCT	1.09 ± 0.03
CATGAATGGA	1.01 ± 0.017
AGGTGATGTG	0.998 ± 0.028
TTGGGAAGCG	1.001 ± 0.0093
GTTTGGGCCG	1.07 ± 0.028
AAGGCTAGGA	1 ± 0.036
AAGGGGACAC	1.02 ± 0.014
CTAGGTGGCT	1.02 ± 0.073

Sequence	switch fluorescence ratio
ATTCGCGCTG	0.994 ± 0.064
CATTGGTAGT	0.977 ± 0.035
TGGTATAGTT	0.981 ± 0.049
GATGTGGCTT	0.961 ± 0.015
CTCTTTGCGA	1.404 ± 0.0035
GTTATATGGT	1.02 ± 0.021
GGGGAAAAGA	1 ± 0.025
TCGAGGGTCT	1.023 ± 0.0083
GTTGTAGGTG	1.057 ± 0.0014
TTAATTTGTC	1.03 ± 0.061
ACAGTTAGGT	0.992 ± 0.034
GTGATAACGG	1.008 ± 0.0091
CACTGGCGAT	1.06 ± 0.054
GTCAGGATTT	0.9925 ± 0.0087
CTCTTTTTTT	0.991 ± 0.014
AGATAGGGGT	1.021 ± 0.008
GCTACTGGAT	1.007 ± 0.0058
CCAGAACTTA	1.03 ± 0.026
GGCATCAGGC	1.03 ± 0.042
CGTTATTGAG	0.95 ± 0.016
GACAGAGGGT	1.04 ± 0.013
CAGGGGGTTT	1.01 ± 0.044
ATAAGGTGAG	0.998 ± 0.035

Sequence	switch fluorescence ratio
ACTGTTTTCG	1.02 ± 0.028
ACCTTTTCTT	1 ± 0.011
ACCAGGGGGT	1.05 ± 0.09
TATAGGCGGT	1.12 ± 0.2
CACTTAACAG	1.1 ± 0.017
TGCTGTCTGT	0.9903 ± 0.0058
GTTGCAGTTA	0.9986 ± 0.0029
ATATGCGGCG	1.02 ± 0.073
TTAGGTACGG	1.035 ± 0.01
AAGTTAGACC	1.026 ± 0.0041
GGGAAAGAAT	0.978 ± 0.011
TTCCAGGCGT	1.23 ± 0.055
TCCCCTGTCG	1.07 ± 0.085
TGGGGGGCAC	0.986 ± 0.043
TTTTTAATCT	0.9902 ± 0.0083
GCTAGAGAGG	1.04 ± 0.063
CGAGTAGGAA	0.984 ± 0.017
ATTCATGGGA	1.02 ± 0.031
TTTACCCCAT	1.05 ± 0.032
CCATGTGTGC	1.02 ± 0.027
GATGGAAGTT	1 ± 0.018
TGTTGAAAAG	0.979 ± 0.01
GATGAAGAAA	1.025 ± 0.0026

Sequence	switch fluorescence ratio
TGGTGGTGCA	1.04 ± 0.039
TTAACCCGCC	1.16 ± 0.14
TACTTATCCT	1.05 ± 0.042
CGTTCCAGGC	1.083 ± 0.0064
TTTTGTCCAT	0.992 ± 0.015
AGCGGTTTTC	0.994 ± 0.033
ATAGGCTAGT	1.02 ± 0.025
GTTGTACTTG	0.988 ± 0.005
GGGTGGGGTA	0.971 ± 0.036
GTGTATGGAT	1.023 ± 0.0066
AAGTTCATGG	0.973 ± 0.012
TTTAGCAGCT	0.993 ± 0.014
GAATACCTTT	1.02 ± 0.013
AAAAGCAGTT	1.028 ± 0.004
TGGTTACCAT	1.02 ± 0.057
GCTTTTGGGG	1.03 ± 0.087
ACGGGTTGTG	0.96 ± 0.037
TTTTTAAGAC	1.08 ± 0.086
TTAAAAGAGG	1.01 ± 0.014
TGATTAGATT	1.01 ± 0.046
ATGTAGAGGC	0.987 ± 0.026
TGGGAAGACA	1.06 ± 0.092
ACATACAATT	1.23 ± 0.091

Sequence	switch fluorescence ratio
AAGGTAGAAA	1.03 ± 0.016
GGAGGGATAG	1.26 ± 0.029
ATGTCAGGTG	4.1 ± 0.71
TAGACGGGGG	1 ± 0.04
GTAGTTTTGT	0.987 ± 0.032
CCGATGTGTC	2.42 ± 0.52
ACGGGATCAT	1.07 ± 0.054
TGTTGCGTGG	0.992 ± 0.012
GGGGTTCATC	0.995 ± 0.022
TATTTTTTCG	0.987 ± 0.027
CCAAATGAAT	1.03 ± 0.025
ACTTCTGGTG	1.23 ± 0.031
CTGTCAAGTA	0.972 ± 0.012
GGTTGAGATG	0.982 ± 0.014
GCTTTTTAGG	0.964 ± 0.024
TAGAGAGCCA	1.03 ± 0.041
TTTGCTTTTC	0.994 ± 0.05
CAAAGGTTAG	1.0209 ± 0.001
ATTTTGATAT	1.01 ± 0.018
